Assay results published in patent US20260250370.

Test system: TGFβ1 C4S Small Latent Complex (SLC)
Sequence (chain, as listed by the source): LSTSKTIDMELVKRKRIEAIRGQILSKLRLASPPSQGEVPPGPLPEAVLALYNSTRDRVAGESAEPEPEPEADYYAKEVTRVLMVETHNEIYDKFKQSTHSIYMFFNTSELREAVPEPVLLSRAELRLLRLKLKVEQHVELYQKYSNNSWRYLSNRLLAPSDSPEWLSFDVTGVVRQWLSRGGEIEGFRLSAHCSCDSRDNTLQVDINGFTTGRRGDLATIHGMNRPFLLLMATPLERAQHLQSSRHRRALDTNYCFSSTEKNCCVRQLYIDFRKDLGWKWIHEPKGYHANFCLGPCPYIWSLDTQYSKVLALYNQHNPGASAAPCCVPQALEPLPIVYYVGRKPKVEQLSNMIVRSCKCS

Substance: kallikrein
- kallikrein digestion of LAP (gel): LAP can be cleaved by kallikrein into a R^58 LAP-D fragment and a L^59 LAP-D fragment
